Each block holds one binder with its values, some of them ahead of it.
How the values were obtained:
human MS4A4A [1] = target: T1, human MS4A4A (human, UniProt Q96JQ5 1-239); assay: FACS, U937 cells, supernatant; U937 cells overexpressing h4A
Description: (§1) Positive clones identified in Example 22 above were expanded and then rescreened for specificity against U937, K562, and/or 300.19 cells stably overexpressing human MS4A4A or cyno MS4A4A and parental U937, K562, and/or 300.19 cells. These experiments were performed using supernatants from hybridoma clones which had undergone further expansion after initial selection. Briefly, stably transfected cells were labeled with LIVE/DEAD Fixable Aqua Dead Cell Stain Kit (ThermoFisher Scientific Cat#L34957) on ice for 30 minutes. […] 2×10⁵ cells were aliquoted per well in 96-well U-bottom plates and incubated with 50 μl of culture supernatant on ice for 30 minutes. […] Following this secondary incubation, the cells were again washed twice with ice-cold FACS buffer and resuspended in a final volume of 200 μl of FACS buffer. Analysis was performed on a FACS Canto system (BD Biosciences), with gates drawn to exclude dead (Aqua-positive) cells.
(§2) The APC ratio was calculated for each antibody as follows. […] For cell lines overexpressing human MS4A4A (h4A) or cyno MS4A4A (cy4A), the ration was calculated by comparing the binding measured to the binding observed on the corresponding parental cell lines.

[2] = target: T2, human MS4A4A ECL2 peptide (amino acid residues 159-179), free (human); assay: peptide ELISA, supernatant
T2 construct: synthetic peptide; also called huMS4A4A-ELC2 free-peptide
T2 peptide: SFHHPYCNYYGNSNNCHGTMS

human MS4A4A [3] = target: T1, human MS4A4A; assay: FACS, K562 cells, supernatant; K562 cells overexpressing h4A
Description: as §1, §2

[4] = target: T3, human MS4A4A ECL1 peptide (amino acid residues 86-98) (human); assay: peptide ELISA
T3 construct: synthetic peptide
T3 peptide: CMASNTYGSNPIS
In short: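 Free or BSA-conjugated peptides were coated at 2 or 10 […] in 0.05M carbonate buffer, pH 9.6, overnight at 4 °C, then blocked 1 h with PBS+0.5% BSA+0.05% Tween20. Antibodies were bound 30 min at room temperature with shaking. TMB was developed 5-10 min, stopped, and absorbance read at 650 nm.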

human MS4A4A [5] = target: T1, human MS4A4A; assay: FACS, 300.19 cells, supernatant
Description: as §1, §2

human MS4A4A [6] = target: T1, human MS4A4A; assay: FACS, U937 cells, supernatant
Description: as §1, §2

human MS4A4A [7] = target: T1, human MS4A4A; assay: FACS, K562 cells, supernatant
Description: as §1, §2

[8] = target: T4, BSA-conjugated human MS4A4A ECL2 peptide (amino acid residues 159-179) (human, conjugated to BSA (site not stated)); assay: ELISA, hybridoma supernatant
T4 construct: also called MS4A4A-ECL2 BSA conjugated peptide; BSA-MS4A4A-ELC2 peptide
T4 peptide: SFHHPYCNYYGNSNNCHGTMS

[9] = target: T5, human MS4A6A ECL2 peptide (amino acid residues 138-185) (human); assay: array SPR
T5 peptide: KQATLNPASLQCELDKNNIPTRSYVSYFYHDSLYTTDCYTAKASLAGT

[10] = target: T6, human MS4A6A ECL1 peptide (amino acid residues 68-85) (human); assay: array SPR
T6 peptide: SASFSPNFTQVTSTLLNS

[11] = target: T3, human MS4A4A ECL1 peptide (amino acid …); assay: array SPR
cynomolgus (cyno) MS4A4A [12] = target: T7, cynomolgus (cyno) MS4A4A (cynomolgus); assay: FACS, stably transfected cells
T7 construct: also called cy4A; Cyno 4A

cynomolgus (cyno) MS4A4A [13] = target: T7, cynomolgus (cyno) MS4A4A; assay: FACS, HEK293, supernatant
human MS4A4A [14] = target: T1, human MS4A4A; assay: FACS, HEK293, supernatant
cynomolgus (cyno) MS4A4A [15] = target: T7, cynomolgus (cyno) MS4A4A; assay: flow cytometry (anti-mouse IgG Fc-APC), hybridoma supernatant on 300.19 cells transfected with cyno MS4A4A
Description: Flow cytometry was performed as follows. Briefly, transiently-transfected cells were labeled with LIVE/DEAD Fixable Aqua Dead Cell Stain Kit (ThermoFisher Scientific Cat#L34957) on ice for 30 minutes. […] 2×10⁵ cells were aliquoted per well in 96-well U-bottom plates and incubated with 50 μl of culture supernatant on ice for 30 minutes. […] Following this secondary incubation, the cells were again washed twice with ice-cold FACS buffer and resuspended in a final volume of 200 μl of FACS buffer. Analysis was performed on a FACS Canto system (BD Biosciences), with gates drawn to exclude dead (Aqua-positive) cells.

[16] = target: T4, BSA-conjugated human MS4A4A ECL2 …; assay: ELISA, supernatant
cynomolgus (cyno) MS4A4A [17] = target: T7, cynomolgus (cyno) MS4A4A; assay: FACS, 300.19 cells, supernatant
Description: as §1, §2

[18] = target: T2, human MS4A4A ECL2 peptide (amino acid …); assay: peptide ELISA

fold increase in MFI (human MS4A4A [1]): > 2 fold | binding result [2]: no binding | fold increase in MFI (human MS4A4A [3]): > 2 fold | binding result [4]: no binding
B1: anti-MS4A4A antibody 4A-204 (antibody, V domains shown)
VH: DVKLVESGGGLAKLGGSLKLSCAASGFTFSSFYMSWVRQTPEKRLELVAAINSNGGSTYYPDSVKGRFTISRDNVKNTLYLQMSSLKSEDTAMYYCARHLYYGLYYAMDYWGQGTSVTVSS
VL: ENVLTQSPAIMSASPGEKVTMTCSASSSVSFMYWYQEKSSTSPKLWIYDTSKLASGVPGRFSGSGSGNSYSLTISSMGAEDVATYYCFQGSGFPLTFGSGTKLEIK
notes: murine hybridoma antibody

fold increase in MFI (human MS4A4A [5]): > 2 fold | fold increase in MFI (human MS4A4A [6]): > 2 fold | binding result [2]: no binding | binding result [4]: no binding | fold increase in MFI (human MS4A4A [7]): > 2 fold
B2: anti-MS4A4A antibody 4A-220 (antibody, V domains shown)
VH: EVQLQQSGPDLVKPGASVKISCKASGYSFNGYFMNWVMQSHGESLEWIGRINPYNGDTLYNQKFKGKATLTVDKSSSTGHMELRSLASEDSAVYYCARVKGYDYDGAMDYWGQGTSVTVSS
VL: DIVMTQSPDSLAVSLGERATINCRSSQSLLQSGNQKSSLAWYQQKPGQPPKLLIFWARTRQSGVPDRFSGSGSGTDFTLTISSVQAEDVAVYYCQQYSDTPFTFGQGTKLEIK
notes: murine hybridoma antibody

binding result [8]: no binding | binding result [9]: no binding (tested: 2000 nM) | binding result [10]: no binding (tested: 2000 nM) | binding result [11]: no binding (tested: 2000 nM)
B3: anti-MS4A4A antibody 4A-24 (antibody, V domains shown)
VH: EVKLEESGGGLVQPGGSMKLSCAASGFTFSDAWMDWVRQSPEKGLEWVAEIRDNADNHPTYYAESVKGRFTISRDDSKSSVYLQMNSLRAEDTGIYYCTSDYYGSHWGQGTTLTVSS
VL: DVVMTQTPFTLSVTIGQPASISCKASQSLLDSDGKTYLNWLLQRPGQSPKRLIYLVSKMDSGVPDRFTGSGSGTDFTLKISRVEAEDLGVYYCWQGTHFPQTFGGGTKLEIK
notes: murine hybridoma antibody

fold increase in MFI (human MS4A4A [1]): > 2 fold | binding result [2]: no binding | fold increase in MFI (human MS4A4A [3]): > 2 fold | binding result (cynomolgus (cyno) MS4A4A [12]): binds | binding result [4]: no binding
B4: anti-MS4A4A antibody 4A-206 (murine) (antibody, V domains shown)
VH: EVKLVESGGGLVKPGGSLKLSCAASGFTFSSYTMSWVRQTPEKRLEWVASLSSGGSTYYPDSVKGRFTISRDNARNILYLQMSSLRSEDTAMYYCAKDYYVSSYRWYFDVWGAGTTVTVSS
VL: DIQMTQITSSLSASLGDRVTISCRASQDISNYLNWYQQKPDGTVKLLIYYTSNLHSGVPSRFSGSGSGTDYSLTISNLEQEDIATYFCQQGKSFPWTFGGGTKLEIK
notes: murine hybridoma antibody

Cyno 4A:parental cell ratio (cynomolgus (cyno) MS4A4A [13]): 1.22 ratio | Human 4A:parental cell ratio (human MS4A4A [14]): 1.96 ratio | binding result (cynomolgus (cyno) MS4A4A [15]): no binding | binding result [9]: no binding (tested: 2000 nM) | binding result [10]: no binding (tested: 2000 nM) | binding result [11]: no binding (tested: 2000 nM) | binding result [16]: binds
B5: anti-MS4A4A antibody 4A-23 (antibody, V domains shown)
VH: EVQLQQSGPELVKPGASVKMSCQASGYTFTDYNIHWVKQSHGKSLKWIGYINPNNDDTTFNQKFKGKATLTVNKSSSTAYMELRSLTSEDSAVYYCARSPYCYFDVWGTGTTVTVSS
VL: DIQMTQSPSSLSASLGGKVTITCKASQDINKYIVWYQHKPGKGPRLLINYTSTLQPGIPSRFSGGGSGGDYSFSISNLEPEDIATYYCLQYDNLWTFGGGTKLEIK
notes: murine hybridoma antibody

binding result [2]: no binding | fold increase in MFI (human MS4A4A [3]): > 2 fold | binding result (cynomolgus (cyno) MS4A4A [12]): binds | binding result [4]: no binding
B6: anti-MS4A4A antibody 4A-213 (murine) (antibody, V domains shown)
VH: QVQLKESGPGLVAPSQSLSITCTVSGFSLTSYGVHWVRQPPGKGLEWLGVIWVGGSTNYNSALMSRLSISKDNSKSQVFLKMNSLQTDDTAMYYCARAVYYYGSSYYFDYWGQGTTVTVSS
VL: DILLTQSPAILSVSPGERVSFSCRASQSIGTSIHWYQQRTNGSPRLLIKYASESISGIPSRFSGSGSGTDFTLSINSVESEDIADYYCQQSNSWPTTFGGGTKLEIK
notes: murine hybridoma antibody

fold increase in MFI (cynomolgus (cyno) MS4A4A [17]): > 2 fold | fold increase in MFI (human MS4A4A [5]): > 2 fold | fold increase in MFI (human MS4A4A [6]): > 2 fold | binding result [18]: binds | binding result [4]: no binding | fold increase in MFI (human MS4A4A [7]): > 2 fold
B7: anti-MS4A4A antibody 4A-214 (antibody, V domains shown)
VH: EVKLEESGGGLVQPGRSMKLSCVASGFTFSNYWMNWVRQSPEKGLEWVAEIRLKSNNYATHYAESVKGRFTISRDDSKSSVYLQMNNLRAEDTGIYYCSSMIIVDYWGQGTTVTVSS
VL: DIVLTQSPASLTVSLGQRATISCRASQSVSSSTYSYLHWYQQRPGQPPKLLIKYASNLESGVPARFSGSGSGTVFTLNIHPVEEEDTATYYCQHSWEIPLTFGAGTKLEMK
notes: murine hybridoma antibody

Reference: patent US20230126400A1 (Alector, published 2023)
